Results taken from a protein production outcome set (Wang et al. 2014).

Assay: label from the status in PepcDB records

Sequence	protein production
MIDDLLNFFNSFNVVKNYKLINQLKNEVDTLKSRLDIPRELLDGFYADRNSREYREVYEKDAPLVTVCIGTYNRGKLLVERSVRSVLEQSYGNIELIVVGDCCTDDTPRLVQGITDPRFRFINLPERGNYPENPLHRWCVAGTVPFNYALSQARGDFITHLDDDDEFVPDRIEKLVKFIQREKADLVWHPFWYERSNGRWAMRKAQEFSGGKVTTSSIFYHRWFTAVPWDIEAYRYQEPGDWNRLRKIKYLGARVARYPEPLLRHYCERNQESLSSRTIQTRNTKLEHHHHHH	failed
MQETMLDLRTVYECNRCLGCKTLHPQVGIINLENPSLEEDAVKFEFYAVLLIEDCPGGCCCCGRKYYDYSNATMVFLTPGEIFRMSKENTLPDKGYLLAFHPDLLFRTSLKNHIKNYTFFHYRKEEALHLSRRETEKVTCCLSNIEDELHHPIDTHSSIILSRHIELLLDYCTRYYERQFITRENKNKALLENMERLFVEYIASGRLQGGKLPTSGYMAGELDLSVAYFDDLLKFETGKTLEEYLQLKRLDIARHMLLQDGHTPAAVARKLGYPNVQCFSVLFKKITGVAPSDYRLSQN	not failed
SKSNKIFVGGIPHNCGETELREYFKKFGVVTEVVMIYDAEKQRPRGFGFITFEDEQSVDQAVNMHFHDIMGKKVEVKRAEPRDSKS	not failed
MPDSVEDTSTISLRICLEGHANALALNKDNNQIALAGRSLLKVYSINSNGFTESCNMRGKNQNLSYSANDVAWSTLDSNLLATAATNGVVSVWDLSKFGRQKQLLVYNEHERTAHTVTFHSSEPNILISGSQDGTIKCFDIRSDKSINTYFCNSESVRDVKFSPHTQNIFSAVSENGTVQLWDMRKWDKCMVQFTAHYGPVYTCDWHPTRNWLATGSRDKQIKVWNMDGRPGLEHTIHTIAVVGRVKWRPERTYHIASCALVVDYSVHVWDIRRPYIPFASFNEHTNVTTGIAWQGSDSHCLLSISKDSTIYKHAFKDATRPALKANAQGASLGRFGDISFANKIKEYEPKTSGASNTKSSSFIRRKTNVAGSIQFHLDHSKMYKFMVNDTFSGYPLSESVSRPTQEHESFIGCARELVISGKKLSELCEHNAEVSKKYGKHNATTLWNFIKLFYGSNHFEPPFEHRSSFSNQKNPMNSRRATQVASDWPQQRTELGQDLNGNTPETAHEIDVANVDDDTLGSSGVEHPPTSSVILSETQIISEITFDNFELLRNGFIYVGPTECPKALAFPALHHDVQAARPQLDLKASDHEKSPVS	failed
MGVIVPGNSSPVPALSAGRSTVEGYDPKLHDPFFDGVSQQLADKGFITAAADDLITWARTGSLMWMTFGLACCAVEMMQASMPRYDLERYGFAPRASPRQSDVMIVAGTLTNKMAPALRKVYDQMPEPRYVISMGSCANGGGYYYYSYSVVRGCDRVVPVDIYVPGCPPTAEALVYGVLQLQKKIRRTGTIER	failed
MQEEFMKKNSIIAGLFVFCITTAGIGYTVYNSVYSDRQKHRINETAKLDSAKAPNELKDGEYTASAEGYEGPITVKVVIKEGKIFSVEVLSHNETPEYYEMAKKILQTIVEKNTFNVDSISGATVTSDAIKVAVYKALVQAGAKTSDVAEGLEKENEELRDKEKAKLLAKQSSAVAGKVGFNRNNLKDGTFIGVGRGYNGLIKVSISIKNGVIYDARVISHSDDYPYFTWASSVLNKVISGSTNIDTVSGATVSSRGILNAVKDALRKASNGNNSLDINSPDETEQNIPRQNRREIEQIKKYFKGLKDGVYFGKSNGYYTNSIEVKVTVKDGKIAKIELTKNDDDESYFDNKKAGILGERIISNQSTNIDTISGATTSSKGFINAVVNALEKAVDSNGSDADKYIYSPKTIIANVGETIGLQKIRDALEKLPEDVQINIKNNADTSSEGKTKIVVELIFKDNSKKIVEIPVLVNSKVDGSYKFLSAEEVKNLDKNVNYPDGVYYGDSYGFVSNKPIPVKVTIKNNKIENVELVKEELNRLKGVTSPGNVDDGGIFQEKFYTIIDRIKNMQKFESLIYKFEVLRDATSKVMEEARGKEQTVEVYRAALDKVIGKHNFGKWGLSIDESHLKGERNIHDRIFSLLKVYVKEELGYDGSDYDAVSGATFTATGTATSIKNALLKAKNFDFYDMRVDDSNFKTSYKEGDKLDLKDLKVTIYKKNNQKITVSYSDFGKYGLKVVDEYNKELKDGLVLNKENLGYNVTDGLRLKVVHEESKSFKFLNTILISKSTTKNFEISGIKIKAKDGSEWYDTKGYNTTDFIQNLTVSKEVAEKLNNKEIEFKIIAKDKKSSEEIEIPLRQAQNKTLIADFVSGEYTLDVIEKYKGVLFNNTFRIKTKVEGKIPKAFLYKETPETLIISKGTEITESKIRSVLKNLPDKTDISVLRGVDVNKVNETVLQKLLIKLKFDDGSEKEIEIDVIVKEKVISMADKYVYKPKDLITIKGKEVELSHLKNHLDDLPEGTKIEIIEKANVSEVNETGTLMKVSLEFTDKSTKDISINVVVKDTAPNKAEEFKILYPEIKNEIVNVVVKDPKYGNMKNFAETVKWGAFSDFAINRDLKLKSRSADISRIEVLKEPDRSKLGDQKGKIRLSFNDGSKLELEISVKIVPYPVYKIFRLTSNKTQYRLEDKFNLNDLKVTLFISNKLENESDWDTTGTPVLNIPYSDFYLFGIKVVDLDSKKEIENNSIISTLIKNKKLSVGAYCENLIQKNNYESGKKLVEIFNIKITNIDEWKESKKNIVEIKDEKNSKKADDSNKTGKVMASKKEIKNVDNLDNTSEKNKTIESENTTKDKVQRKDSDSGGKLSDDSSEKQNLKTNEKED	failed
MGTLGRAIYTVGNWIRGTGQALDRVGSLLQGSHRIEEHLSRHRTLMNVFDKSPLVDKDVFVAPSASVIGDVQIGKGSSIWYGCVLRGDVNNISVGSGTNIQDNTLVHVAKTNISGKVLPTLIGDNVTVGHSAVIHGCTVEDDAFVGMGATLLDGVVVEKHAMVAAGSLVKQNTRIPSGEVWGGNPAKFMRKLTDEEIVYISQSAKNYINLAQIHASENSKSFEQIEVERALRKKYARKDEDYDSMLGITRETPPELILPDNVLPGGKPVAKVPSTQYF	failed
MRTILFKSVPFSKEAVTLALESGVDGIIVPEKHVAPVQALARCKVLCDDAVCTLELTAKADEEEAASRLAAGEDVVLARGWEIIPVENLLARSDRVTVEVASLDEARLAAGILERGVSTVVVLPQAVTELKAIVQELKLSQGRIDLAPAVVTAVRPVGLGHRVCVDTMSLLRTGQGMLVGNSSAFTFLVNAETEHNEYVAARPFRINAGAVHAYAVMPGDRTTYLEELRSGSEVLIVGADGATTIATVGRLKVEVRPMLLVEARVGDTVGAVFLQNAETIRLVRADGTPVSVVALREGDEVLCRTDVAGRHFGMRITEDIREA	failed
LVAVDEFIRRHFSQPVTMAELTGIAGMSAAQLERYCKKVFHLSPRQMIHKARLEHAHRLLHADMAITEVALRCGYADHSAFSRQFKALTGLTPRQYRQQ	failed
MQPCPSEAPRVLHALTRRGMALALAATLSLVLSACGGGGDDTAAATTAPPSSNAVTPSPSPAPAPTYSVGGTVAGLGSGLSVKLLNNGGDAVTVTANGNFQFPTALASGAQYAATVGTRPSGQQCTIANDSGTMGSANVTNIAVTCSTRPLFAYTANSNDNTVSAYTLDPTTGAPTLIGTPISVGQGPLSLIADKAGKFVYVVDGNDNSVTTLAIDSETGLLTISGTPATTGMQPFNIARTPASTFAYTTNFGDNTLSGFSINATTGVLTSIGTIAAGTNPYTIVINKAGTFAYVVNAASGAGTPSAMVFSINGATGALTAVGSPVATGNAPFYIALHPAGTFAYVANSQDNTVQVYAINQTTGALTAVGSPVATGQGPIPIAIHPSGLFAYVGNVFDNTVSLYAINTGTGALTLKSTLATGNDPLAITLNDAGSIAYIVNGVDHDVVAYAVDSSTGALTSVATAQTGLLPRAFAIVAVP	failed
